{
  "source": "patent US20040241164A1",
  "key": {"Soluble Aβ 1-42": {"biological_target": "Soluble Aβ 1-42 (UniProt P05067)", "assay": "BIAcore 2000 SPR, antibody captured by anti-Ig, soluble Aβ in flow"}, "Soluble Aβ 1-40": {"biological_target": "Soluble Aβ 1-40 (UniProt P05067)", "assay": "BIAcore 2000 SPR, antibody captured by anti-Ig, soluble Aβ in flow"}},
  "data": [
    {"substance": "Murine anti-Aβ antibody 266", "values": [
      {"measurement": "Kd", "setting": "Soluble Aβ 1-42", "value": 0.004, "unit": "nM"},
      {"measurement": "Kd", "setting": "Soluble Aβ 1-40", "value": 0.004, "unit": "nM"}
    ]},
    {"substance": "anti-Aβ murine antibody 4G8", "values": [
      {"measurement": "Kd", "setting": "Soluble Aβ 1-42", "value": 24, "unit": "nM"},
      {"measurement": "Kd", "setting": "Soluble Aβ 1-40", "value": 23, "unit": "nM"}
    ]},
    {"substance": "anti-Aβ murine antibody 21F12", "values": [
      {"measurement": "Kd", "setting": "Soluble Aβ 1-42", "value": 4.4, "unit": "nM"}
    ]}
  ]
}
